# Measurements as given in patent US20110020833A1.
# Where no end group is shown, it is not given here.
# Molecular target: BSA+oligo-Lys conjugate (oligo-Lys peptide K14C coupled to bovine serum albumin) (bovine) (UniProt P02769)
# Assay: MACN-labeled peptide in plasma matrix, 30 min in tubes coated with oligo-Lys-BSA to which the oligo-Asp-anti-PCT antibody was bonded; luminometer
# UniProt P02769, sequence (P02769 25-607, stated change not applied): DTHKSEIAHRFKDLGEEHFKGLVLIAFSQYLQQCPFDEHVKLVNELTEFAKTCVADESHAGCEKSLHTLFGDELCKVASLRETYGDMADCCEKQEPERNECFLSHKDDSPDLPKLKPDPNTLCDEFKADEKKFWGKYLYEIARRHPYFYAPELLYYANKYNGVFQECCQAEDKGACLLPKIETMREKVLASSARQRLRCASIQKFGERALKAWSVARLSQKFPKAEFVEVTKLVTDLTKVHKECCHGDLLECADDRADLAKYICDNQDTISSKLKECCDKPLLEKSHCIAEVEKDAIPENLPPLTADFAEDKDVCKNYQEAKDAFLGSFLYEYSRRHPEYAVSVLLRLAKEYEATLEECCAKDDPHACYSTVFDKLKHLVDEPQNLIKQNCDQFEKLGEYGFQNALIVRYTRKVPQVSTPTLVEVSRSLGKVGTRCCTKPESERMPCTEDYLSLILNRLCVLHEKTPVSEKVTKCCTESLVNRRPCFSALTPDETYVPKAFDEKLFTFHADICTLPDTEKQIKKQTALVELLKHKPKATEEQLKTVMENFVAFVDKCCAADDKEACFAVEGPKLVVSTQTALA
row,Binder,percentage of non-specific binding relative to the total activity
1,"SSEEHLRQTRSETMRNSVKSSFHDPKLKGKPSRERYVTHNRAHW (also: MACN acridinium label, site not given here) [MACN-labeled peptide PSW44 (derived from proEndothelin)]",3%
2,"PEVPPWTGEVSPAQRDGGALGGGGRGPWDSSDRSALLKSKL (also: MACN acridinium label, site not given here) [MACN-labeled peptide PPL41 (derived from NT-proANP)]",3.1%
3,"ATQLDGPAGALLLRLVQLAGAPEPFEPAQPDAY (also: MACN acridinium label, site not given here) [MACN-labeled peptide PAY33 (derived from copeptin)]",6.5%
4,"ELRMSSSYPTGLADVKAGPAQTLIRPQDMKGASRSPEDSSPDAARIRV (also: MACN acridinium label, site not given here) [MACN-labeled Peptide 45-92 (derived from pro-adrenomedullin)]",2.9%
